Reference: the supplement of paper PMC10724198
± gives the standard deviation of the averaged measurements.

test system: Saccharomyces cerevisiae; assay: protein stability index of tFT-peptide fusion (C-terminal peptide) (PSI (0-1 scale)); higher = more stable (slower turnover); details: genetic background: wild type; temperature: 30 C
Procedure: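 Multiplexed protein stability (MPS) profiling in S. cerevisiae. Random 12-aa peptides (tFT-X12 library) are fused to the C-terminus of a sfGFP-mCherry tandem fluorescent timer, after mCherry and a GGGS linker. Cells are FACS-sorted into 8 mCherry/sfGFP bins and deep-sequenced. The protein stability index (PSI) is the read-weighted bin average, scaled from 0 (unstable) to 1 (stable). Only peptides with >10 reads are reported; cells were grown at 30 °C in SC-His with glucose.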
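Note: PSI is a weighted mean of sequencing reads over stability bins, variants kept only with over 10 reads, mCherry proximal and sfGFP distal, peptide attached via GGGS linker.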

First: KTKNEKHPKTTK
Second: KTLALSAQHPGS
The protein stability index of the first is higher: 0.766 ± 0.045 for the first, 0.645 ± 0.012 for the second.

KTNKDKKRTKTV and KTTTQRQEETAE are within error of each other in protein stability index: 0.714 ± 0.2 for the first, 0.605 ± 0.033 for the second.

First: KVAFKTNQHLGR
Second: KVAGRLAATRSR
The protein stability index of the first is lower: 0.661 ± 0.03 for the first, 0.716 ± 0.013 for the second.

Compared with KVCGRIWWCPRA, KVDYIKKKNSRE is higher in protein stability index: 0.638 ± 0.03 for the first, 0.7142 ± 0.0036 for the second.

Compared with KVEVKRMKKEVK, KVFTQGPGRMLE is higher in protein stability index: 0.668 ± 0.014 for the first, 0.758 ± 0.021 for the second.

KVGGRGQGVKLG and KVIGSAPRAEGR are within error of each other in protein stability index: 0.629 ± 0.034 for the first, 0.656 ± 0.065 for the second.

KVLGSNNMRRSS and KVMTEARTPALS are the same in protein stability index: 0.702 ± 0.018 for the first, 0.702 ± 0.027 for the second.

KVRGMKIKGKLD and KVYTALWLLAGN are within error of each other in protein stability index: 0.675 ± 0.054 for the first, 0.698 ± 0.028 for the second.

KWETAAGSSDGP and KWNITKEQENSR are within error of each other in protein stability index: 0.6993 ± 0.0032 for the first, 0.681 ± 0.018 for the second.

KWQRIKNSPNRK and KYNKSRRGKIKT are within error of each other in protein stability index: 0.749 ± 0.059 for the first, 0.697 ± 0.062 for the second.

LAALVGGNRGRG and LAAVAAGDVGGG are within error of each other in protein stability index: 0.704 ± 0.081 for the first, 0.674 ± 0.035 for the second.

LALTFRLQAPLA and LANAGLVLPRIP are within error of each other in protein stability index: 0.695 ± 0.017 for the first, 0.679 ± 0.0071 for the second.

LAPPIRPCPPSP and LAPTNAPYPHPM are within error of each other in protein stability index: 0.681 ± 0.056 for the first, 0.658 ± 0.015 for the second.

LASCVTRTMAWD and LASREFGVFCIW are within error of each other in protein stability index: 0.664 ± 0.071 for the first, 0.648 ± 0.057 for the second.

Going from LATGCVGVRGHE to LAVILLVLPGND, the protein stability index falls from 0.719 ± 0.023 to 0.563 ± 0.011.

Going from LAWFDLAPSTLP to LAWYPGYCYCCL, the protein stability index falls from 0.827 ± 0.14 to 0.598 ± 0.0089.

Compared with LAYAPLNGDVPY, LCAETGVGPGLW is higher in protein stability index: 0.68 ± 0.01 for the first, 0.724 ± 0.016 for the second.

Compared with LCGFLPSFHLLY, LCHESFDGTFVN is higher in protein stability index: 0.679 ± 0.0088 for the first, 0.72 ± 0.022 for the second.

Compared with LCLCGLLGSGPT, LCLFGGLVAFWC is lower in protein stability index: 0.736 ± 0.042 for the first, 0.585 ± 0.027 for the second.

Compared with LCPALLFLLARS, LCPDFSLQWSFD is higher in protein stability index: 0.5141 ± 0.0033 for the first, 0.759 ± 0.019 for the second.

Going from LCPPLPPSPPRS to LCQWLIEFTVLF, the protein stability index falls from 0.70073 ± 0.00018 to 0.515 ± 0.025.

LCSPSPPCPRLP and LDEQKLKLPPVK are within error of each other in protein stability index: 0.748 ± 0.025 for the first, 0.736 ± 0.024 for the second.

LDFLLSMVHGKK and LDGLNLVRVVGV are within error of each other in protein stability index: 0.702 ± 0.022 for the first, 0.674 ± 0.044 for the second.

LDINWVGGAPEV and LDKLLFIFNCGC are within error of each other in protein stability index: 0.727 ± 0.042 for the first, 0.66 ± 0.044 for the second.

LDRGPFADQAPH and LEGNRGYKRNGK are within error of each other in protein stability index: 0.678 ± 0.012 for the first, 0.637 ± 0.084 for the second.

LELTTIRHNHEL and LERSTCYPREPM are within error of each other in protein stability index: 0.695 ± 0.029 for the first, 0.69 ± 0.1 for the second.

Compared with LESLPSPLHLPM, LETIFEDFGKYR is higher in protein stability index: 0.629 ± 0.026 for the first, 0.794 ± 0.092 for the second.

LFAGPPTGPNAR and LFANGSGSSTSR are within error of each other in protein stability index: 0.802 ± 0.12 for the first, 0.715 ± 0.031 for the second.

First: LFCARNGILLSV
Second: LFCSSHRMQTKL
The protein stability index of the first is lower: 0.516 ± 0.0084 for the first, 0.746 ± 0.029 for the second.

Going from LFFLLCHVGSFR to LFGFFLECCFCT, the protein stability index rises from 0.516 ± 0.0085 to 0.599 ± 0.052.

Going from LFGGCRLVGSVV to LFGLCLAGFCVP, the protein stability index falls from 0.711 ± 0.023 to 0.625 ± 0.046.

LFIVSFSPGFPF and LFLELSSCVGVF are within error of each other in protein stability index: 0.635 ± 0.11 for the first, 0.62 ± 0.024 for the second.

LFLFPVCFTNDL and LFLFSSAGYPNS are the same in protein stability index: 0.661 ± 0.025 for the first, 0.661 ± 0.1 for the second.

First: LFLLALFPPPAS
Second: LFLSFFLPSYNT
The protein stability index of the first is higher: 0.738 ± 0.013 for the first, 0.66 ± 0.026 for the second.

LFLTFYSPLSFT and LFPCFSFPFSFL are within error of each other in protein stability index: 0.646 ± 0.022 for the first, 0.587 ± 0.055 for the second.

LFPHPGPHHPSV and LFPPAFSAFLPF are within error of each other in protein stability index: 0.716 ± 0.016 for the first, 0.725 ± 0.024 for the second.

LFPPTPRPLPLP and LFRRVASILPRD are within error of each other in protein stability index: 0.654 ± 0.023 for the first, 0.668 ± 0.013 for the second.

Going from LFSCVFFLCLNF to LFTDIQAPSVKH, the protein stability index rises from 0.512 ± 0.0074 to 0.788 ± 0.18.

First: LFVLSLHLPCFG
Second: LFVSPRPFRSVL
The protein stability index of the first is lower: 0.498 ± 0.02 for the first, 0.7495 ± 0.0063 for the second.

Going from LFWFSRVVCMSF to LFYFDTWFFPPP, the protein stability index rises from 0.564 ± 0.048 to 0.762 ± 0.097.

LFYVNIPTQFVR gave a protein stability index of 0.564 ± 0.014.
